Sequences and labels used below:
B3: wild-type mouse IL-2 (ligand)
chain: APTSSSTSSSTAEAQQQQQQQQQQQQHLEQLLMDLQELLSRMENYRNLKLPRMLTFKFYLPKQATELKDLQCLEDELGPLRHVLDLTQSKSFQLEDAENFISNIRVTVVKLKGSDNTFECQFDDESATVVDFLRRWIAFCQSIISTSPQ
notes: Soluble protein flowed over the SPR chip; also called wt mIL-2; wild-type IL-2

The test “wild-type mouse IL-2” concerns the target B3. The test can be described thus: surface plasmon resonance.
Test [1] addresses T1, yeast-displayed wild-type human IL-2 (human, UniProt P60568 21-153).
T1 construct: also called wild-type IL-2; hIL-2
The test is described as follows: FACS, yeast-displayed hIL-2 stained with receptor tetramers. As to the method:
We introduced the H133D Y134F mutations that were used to create the mouse orthol L-2Rβ into human IL-2Rβ, as these residues are highly conserved between mouse and human.
Yeast display of IL-2. […] Transformed yeast were passaged once in SDCAA and yeast cultures in log phase were pelleted and resuspended at an OD600 of 1.0 in SGCAA induction media containing 10% SDCAA and cultured for 24 hr at 20° C.

A further test has as its target T2, wild-type mouse IL-2Rβ (mouse, UniProt P16297 27-240, limits assumed).
T2 construct: Recombinant protein coated on the SPR chip or used to stain yeast; also called wild-type IL-2Rβ; mIL-2Rβ
T2 sequence: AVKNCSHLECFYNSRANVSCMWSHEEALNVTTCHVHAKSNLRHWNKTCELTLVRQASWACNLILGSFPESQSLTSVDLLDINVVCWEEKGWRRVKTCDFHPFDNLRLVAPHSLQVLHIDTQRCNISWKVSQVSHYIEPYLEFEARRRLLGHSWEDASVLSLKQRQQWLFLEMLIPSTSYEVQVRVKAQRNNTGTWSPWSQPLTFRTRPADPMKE
The test can be described thus: SPR, soluble IL-2 over a receptor-coated chip, 1:1 binding model. As to the method:
Binding was determined by surface plasmon resonance (SPR) and curves were fitted using a 1:1 binding model.

Three molecules from patent US20210060068A1 (Stanford University, published 2021) can be followed below.

T1 sequence (P60568 21-153): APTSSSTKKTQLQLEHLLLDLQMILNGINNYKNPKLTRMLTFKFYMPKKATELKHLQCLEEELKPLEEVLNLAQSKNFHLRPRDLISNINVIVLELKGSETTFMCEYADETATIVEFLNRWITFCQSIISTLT

B1: orthogonal mouse IL-2Rβ H134D Y135F (receptor)
chain: AVKNCSHLECFYNSRANVSCMWSHEEALNVTTCHVHAKSNLRHWNKTCELTLVRQASWACNLILGSFPESQSLTSVDLLDINVVCWEEKGWRRVKTCDFHPFDNLRLVAPHSLQVLHIDTQRCNISWKVSQVSDFIEPYLEFEARRRLLGHSWEDASVLSLKQRQQWLFLEMLIPSTSYEVQVRVKAQRNNTGTWSPWSQPLTFRTRPADPMKE
notes: Recombinant protein coated on the SPR chip or used to stain yeast; also called orthoIL-2Rβ; mIL-2Rβ H134D Y135F
Turning to B1, the binding result with wild-type mouse IL-2 is “no binding”.

B2: ortho human IL-2Rβ H133D Y134F mutant tetramers (receptor)
chain: AVNGTSQFTCFYNSRANISCVWSQDGALQDTSCQVHAWPDRRRWNQTCELLPVSQASWACNLILGAPDSQKLTTVDIVTLRVLCREGVRWRVMAIQDFKPFENLRLMAPISLQVVHVETHRCNISWEISQASDFFERHLEFEARTLSPGHTWEEAPLLTLKQKQEWICLETLTPDTQYEFQVRVKPLQGEFTTWSPWSQPLAFRTKPAALGKDT
notes: Tetramers used to stain yeast; also called ortho-hIL-2Rβ; ortho hIL-2Rβ
As for B2, the binding result in test [1] is “no binding”.
B3: in the test with wild-type mouse IL-2Rβ, the binding result is “binds”.
